From patent EP4786492A1
Where a chain is given by its changes, count along the chain named.

B1: Hab015VL4VH5a-hFc (scFv, part only; not given: VL-VH linker and human IgG1 Fc, V domains shown, not shown: another chain or arm of the molecule; a dimerising Fc or GST; small tags and cut ends)
VL: NIVLTQSPATLSLSPGERATLSCKASENVGTYVSWFQQKPGQSPRLLIYGASNRYTGIPARFSGSGSGTDFTLTISSLEPEDFAVYYCGQFYSFPSTFGGGTKVEIK
VH: EVQLVESGGGLVKPGGSLRLSCVASGITFSNFWMNWVRQAPGKGLEWVGQIRLKSDDYATHYAESVKGRFTISREDSKNTVYLQMNSLKTEDTAVYYCTTGYYFDYWGQGTTVTVSS
B2: Hab015VL5VH1a-hFc (scFv, part only; not given: scFv linker and human IgG1 Fc, V domains shown, not shown: another chain or arm of the molecule; a dimerising Fc or GST; small tags and cut ends)
VL: NIQMTQSPSSLSASVGDRVTITCKASENVGTYVSWYQQKPGKSPKLLIYGASNRYTGVPSRFSGSGSGTDFTLTISSLQPEDFATYYCGQFYSFPSTFGGGTKVEIK
VH: B1 VH with V23A

target: monkey DLL3 on CHO-K1-cyno DLL3 cells (cynomolgus monkey); assay: FACS, CHO-K1-cyno DLL3 cells, 4 nM antibody
Sequence (chain, as listed by the source limits assumed): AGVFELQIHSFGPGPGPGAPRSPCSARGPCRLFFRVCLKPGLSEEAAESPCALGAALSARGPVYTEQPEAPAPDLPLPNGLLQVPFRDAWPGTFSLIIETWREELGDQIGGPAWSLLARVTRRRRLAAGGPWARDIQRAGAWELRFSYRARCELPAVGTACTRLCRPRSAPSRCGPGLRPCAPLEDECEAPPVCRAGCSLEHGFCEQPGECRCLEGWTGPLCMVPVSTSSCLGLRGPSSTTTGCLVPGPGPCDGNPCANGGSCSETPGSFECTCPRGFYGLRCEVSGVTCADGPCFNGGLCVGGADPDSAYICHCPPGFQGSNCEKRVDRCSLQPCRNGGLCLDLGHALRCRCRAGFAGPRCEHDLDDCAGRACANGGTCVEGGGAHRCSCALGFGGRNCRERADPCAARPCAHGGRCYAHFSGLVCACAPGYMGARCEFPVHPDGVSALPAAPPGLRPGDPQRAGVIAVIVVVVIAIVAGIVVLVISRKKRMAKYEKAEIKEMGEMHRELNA

MFI [MFI]	Binder
6520	B1
6660	B2

target: DLL3 endogenously expressed on NCI-H82 cells (UniProt Q9NYJ7); assay: FACS on NCI-H82 cells; antibody 4 nM
Sequence (Q9NYJ7 27-618): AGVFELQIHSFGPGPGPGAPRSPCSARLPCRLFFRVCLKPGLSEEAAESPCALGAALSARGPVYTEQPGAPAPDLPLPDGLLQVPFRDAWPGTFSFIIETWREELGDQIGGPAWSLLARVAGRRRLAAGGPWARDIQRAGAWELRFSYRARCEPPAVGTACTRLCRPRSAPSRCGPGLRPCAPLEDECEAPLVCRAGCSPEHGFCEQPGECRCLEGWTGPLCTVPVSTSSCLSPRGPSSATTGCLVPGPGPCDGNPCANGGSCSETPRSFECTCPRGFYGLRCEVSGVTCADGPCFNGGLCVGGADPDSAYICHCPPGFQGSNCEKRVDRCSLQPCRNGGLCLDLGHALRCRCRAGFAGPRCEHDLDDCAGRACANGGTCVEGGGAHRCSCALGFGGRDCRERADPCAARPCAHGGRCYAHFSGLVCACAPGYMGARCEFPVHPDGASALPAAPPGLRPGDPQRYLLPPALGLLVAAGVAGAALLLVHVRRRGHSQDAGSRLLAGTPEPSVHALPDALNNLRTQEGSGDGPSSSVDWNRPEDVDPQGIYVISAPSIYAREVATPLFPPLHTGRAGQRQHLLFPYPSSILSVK

MFI	Binder
1030	B1
867	B2

target: monkey DLL3 on CHO-K1-cyno DLL3 cells (cynomolgus monkey); assay: FACS, CHO-K1-cyno DLL3 cells, 0.16 nM antibody

MFI [MFI]	Binder
1180	B1
1190	B2

target: DLL3 endogenously expressed on NCI-H82 cells (UniProt Q9NYJ7); assay: FACS on NCI-H82 cells; antibody 0.00128 nM

MFI	Binder
118	B1
118	B2

target: mouse DLL3 on CHO-K1-mDLL3 cells (mouse) (UniProt O88516); assay: FACS, CHO-K1-mDLL3 cells, 0.16 nM antibody
Sequence (O88516 other isoform, or with tags, fused parts or gaps limits assumed): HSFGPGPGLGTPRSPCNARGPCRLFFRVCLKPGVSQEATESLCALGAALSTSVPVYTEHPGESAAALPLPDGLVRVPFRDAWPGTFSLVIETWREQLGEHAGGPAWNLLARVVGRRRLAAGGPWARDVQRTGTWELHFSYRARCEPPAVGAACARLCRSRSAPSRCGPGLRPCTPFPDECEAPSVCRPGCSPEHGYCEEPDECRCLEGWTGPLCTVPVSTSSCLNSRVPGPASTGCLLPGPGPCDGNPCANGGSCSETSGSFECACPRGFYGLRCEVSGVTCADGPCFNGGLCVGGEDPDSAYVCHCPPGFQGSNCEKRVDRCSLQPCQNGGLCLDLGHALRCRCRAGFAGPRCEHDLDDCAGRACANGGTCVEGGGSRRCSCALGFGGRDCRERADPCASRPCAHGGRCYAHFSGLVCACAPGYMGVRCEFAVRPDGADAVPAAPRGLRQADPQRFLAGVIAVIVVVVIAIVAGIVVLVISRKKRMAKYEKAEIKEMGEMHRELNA

MFI [MFI]	Binder
350	B1
393	B2

target: human DLL3 protein expressed on CHO-K1 recombinant cells (human DLL3 extracellular segment fused to EpCAM transmembrane and intracellular regions) (human) (UniProt Q9NYJ7); assay: FACS, CHO-K1 hDLL3 cells, 0.032 nM antibody
Sequence (Q9NYJ7 other isoform, or with tags, fused parts or gaps limits assumed): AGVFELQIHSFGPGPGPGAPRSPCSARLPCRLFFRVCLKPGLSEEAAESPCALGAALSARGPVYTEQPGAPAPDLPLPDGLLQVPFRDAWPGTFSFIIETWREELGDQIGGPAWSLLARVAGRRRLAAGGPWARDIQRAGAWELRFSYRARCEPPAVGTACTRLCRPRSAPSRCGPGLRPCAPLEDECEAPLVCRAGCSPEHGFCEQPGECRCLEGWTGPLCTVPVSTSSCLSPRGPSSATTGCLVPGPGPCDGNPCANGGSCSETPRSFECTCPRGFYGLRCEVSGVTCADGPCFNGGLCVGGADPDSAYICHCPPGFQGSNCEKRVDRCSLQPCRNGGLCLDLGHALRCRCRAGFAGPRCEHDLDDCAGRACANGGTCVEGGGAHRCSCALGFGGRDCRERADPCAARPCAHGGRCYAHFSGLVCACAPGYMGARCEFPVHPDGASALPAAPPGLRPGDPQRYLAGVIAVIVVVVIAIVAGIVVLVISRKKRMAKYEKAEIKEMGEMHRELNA

MFI [MFI]	Binder
283	B1
330	B2

target: human DLL3 protein expressed on CHO-K1 recombinant cells (human DLL3 extracellular segment fused to EpCAM transmembrane and intracellular regions) (human) (UniProt Q9NYJ7); assay: FACS, CHO-K1 hDLL3 cells, 4 nM antibody

MFI [MFI]	Binder
10900	B1
10600	B2

target: monkey DLL3 on CHO-K1-cyno DLL3 cells (cynomolgus monkey); assay: FACS, CHO-K1-cyno DLL3 cells, 0.032 nM antibody

MFI [MFI]	Binder
377	B1
415	B2

target: mouse DLL3 on CHO-K1-mDLL3 cells (mouse) (UniProt O88516); assay: FACS, CHO-K1-mDLL3 cells, 0.00128 nM antibody

MFI [MFI]	Binder
117	B1
121	B2

target: mouse DLL3 on CHO-K1-mDLL3 cells (mouse) (UniProt O88516); assay: FACS, CHO-K1-mDLL3 cells, 0.032 nM antibody

MFI [MFI]	Binder
170	B1
195	B2

target: DLL3 endogenously expressed on NCI-H82 cells (UniProt Q9NYJ7); assay: FACS on NCI-H82 cells; antibody 0.8 nM

MFI	Binder
942	B1
811	B2

target: DLL3 endogenously expressed on NCI-H82 cells (UniProt Q9NYJ7); assay: FACS on NCI-H82 cells; antibody 0.16 nM

MFI	Binder
476	B1
478	B2

target: monkey DLL3 on CHO-K1-cyno DLL3 cells (cynomolgus monkey); assay: FACS, CHO-K1-cyno DLL3 cells, 0.00128 nM antibody

MFI [MFI]	Binder
122	B1
131	B2

target: DLL3 endogenously expressed on NCI-H82 cells (UniProt Q9NYJ7); assay: FACS on NCI-H82 cells; antibody 20 nM

MFI	Binder
1190	B1
1100	B2

target: human DLL3 protein expressed on CHO-K1 recombinant cells (human DLL3 extracellular segment fused to EpCAM transmembrane and intracellular regions) (human) (UniProt Q9NYJ7); assay: FACS, CHO-K1 hDLL3 cells, 0.00128 nM antibody

MFI [MFI]	Binder
122	B1
129	B2

target: mouse DLL3 on CHO-K1-mDLL3 cells (mouse) (UniProt O88516); assay: FACS, CHO-K1-mDLL3 cells, 0.8 nM antibody

MFI [MFI]	Binder
875	B1
922	B2

target: DLL3 endogenously expressed on NCI-H82 cells (UniProt Q9NYJ7); assay: FACS on NCI-H82 cells; antibody 0.032 nM

MFI	Binder
212	B1
219	B2

target: monkey DLL3 on CHO-K1-cyno DLL3 cells (cynomolgus monkey); assay: FACS, CHO-K1-cyno DLL3 cells, 100 nM antibody

MFI [MFI]	Binder
7610	B1
7380	B2

target: human DLL3 protein expressed on CHO-K1 recombinant cells (human DLL3 extracellular segment fused to EpCAM transmembrane and intracellular regions) (human) (UniProt Q9NYJ7); assay: FACS, CHO-K1 hDLL3 cells, 0.0064 nM antibody

MFI [MFI]	Binder
150	B1
160	B2

target: human DLL1 protein (Acro, Cat. No. DL1-H52H8) (human) (UniProt O00548); assay: ELISA, coated hDLL1; maximum over 0.1, 1, 10, 100 nM antibody
Sequence (O00548 18-540 limits assumed): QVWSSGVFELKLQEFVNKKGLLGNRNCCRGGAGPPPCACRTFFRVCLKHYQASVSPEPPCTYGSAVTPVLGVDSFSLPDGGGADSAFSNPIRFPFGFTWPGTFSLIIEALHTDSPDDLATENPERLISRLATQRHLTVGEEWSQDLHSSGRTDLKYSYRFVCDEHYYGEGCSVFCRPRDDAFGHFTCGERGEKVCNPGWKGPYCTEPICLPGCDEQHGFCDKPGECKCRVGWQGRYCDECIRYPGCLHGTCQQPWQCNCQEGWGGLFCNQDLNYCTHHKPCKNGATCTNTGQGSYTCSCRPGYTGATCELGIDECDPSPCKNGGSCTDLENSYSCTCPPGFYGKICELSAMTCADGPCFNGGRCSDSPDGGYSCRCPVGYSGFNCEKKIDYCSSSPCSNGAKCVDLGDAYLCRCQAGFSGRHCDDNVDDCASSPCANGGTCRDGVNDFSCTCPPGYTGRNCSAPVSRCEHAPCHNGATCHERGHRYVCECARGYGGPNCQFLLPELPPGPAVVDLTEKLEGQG

Emax of OD450 nm binding value [OD450 nm]	Binder
0.42	B1
0.47	B2

target: human DLL3 protein expressed on CHO-K1 recombinant cells (human DLL3 extracellular segment fused to EpCAM transmembrane and intracellular regions) (human) (UniProt Q9NYJ7); assay: FACS, CHO-K1 hDLL3 cells, 0.16 nM antibody

MFI [MFI]	Binder
870	B1
936	B2

target: mouse DLL3 on CHO-K1-mDLL3 cells (mouse) (UniProt O88516); assay: FACS, CHO-K1-mDLL3 cells, 100 nM antibody

MFI [MFI]	Binder
1530	B1
1550	B2

target: human delta-like ligand 3 (DLL3) on SHP77 cells (human) (UniProt Q9NYJ7); assay: FACS on SHP77 cells
Sequence (Q9NYJ7 27-618, stated change not applied): as the sequence (Q9NYJ7 27-618) above

MFI at 0.00128 nM [MFI]	MFI at 0.0064 nM [MFI]	MFI at 0.032 nM [MFI]	MFI at 0.16 nM [MFI]	MFI at 0.8 nM [MFI]	MFI at 4 nM [MFI]	MFI at 20 nM [MFI]	MFI at 100 nM [MFI]	Binder
100	117	179	368	709	812	997	1250	B1
102	122	185	343	612	768	907	1140	B2

target: mouse DLL3 on CHO-K1-mDLL3 cells (mouse) (UniProt O88516); assay: FACS, CHO-K1-mDLL3 cells, 0.0064 nM antibody

MFI [MFI]	Binder
126	B1
131	B2

target: monkey DLL3 on CHO-K1-cyno DLL3 cells (cynomolgus monkey); assay: FACS, CHO-K1-cyno DLL3 cells, 0.0064 nM antibody

MFI [MFI]	Binder
164	B1
178	B2

target: DLL3 endogenously expressed on NCI-H82 cells (UniProt Q9NYJ7); assay: FACS on NCI-H82 cells; antibody 100 nM

MFI	Binder
1510	B1
1220	B2

target: human DLL4 protein (Acro, Cat. No. DL4-H5227) (human) (UniProt Q9NR61); assay: ELISA, coated hDLL4; maximum over 0.1, 1, 10, 100 nM antibody
Sequence (Q9NR61 27-524 limits assumed): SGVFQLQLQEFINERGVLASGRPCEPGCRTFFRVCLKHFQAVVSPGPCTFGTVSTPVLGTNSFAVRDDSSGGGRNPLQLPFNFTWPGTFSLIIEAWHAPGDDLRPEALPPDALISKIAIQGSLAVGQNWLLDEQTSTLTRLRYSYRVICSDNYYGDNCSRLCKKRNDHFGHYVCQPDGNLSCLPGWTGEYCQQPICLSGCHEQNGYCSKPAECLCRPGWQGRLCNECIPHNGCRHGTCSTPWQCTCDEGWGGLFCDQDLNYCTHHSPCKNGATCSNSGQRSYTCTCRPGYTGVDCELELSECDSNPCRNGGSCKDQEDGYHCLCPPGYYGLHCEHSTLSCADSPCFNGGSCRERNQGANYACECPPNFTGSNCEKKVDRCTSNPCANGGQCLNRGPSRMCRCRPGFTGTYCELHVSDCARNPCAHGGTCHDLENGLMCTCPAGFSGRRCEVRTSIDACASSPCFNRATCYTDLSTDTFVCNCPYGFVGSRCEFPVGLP

Emax of OD450 nm binding value [OD450 nm]	Binder
0.71	B1
0.71	B2

target: mouse DLL3 on CHO-K1-mDLL3 cells (mouse) (UniProt O88516); assay: FACS, CHO-K1-mDLL3 cells, 4 nM antibody

MFI [MFI]	Binder
1210	B1
1200	B2

target: monkey DLL3 on CHO-K1-cyno DLL3 cells (cynomolgus monkey); assay: FACS, CHO-K1-cyno DLL3 cells, 0.8 nM antibody

MFI [MFI]	Binder
4480	B1
4340	B2

target: human DLL3 protein expressed on CHO-K1 recombinant cells (human DLL3 extracellular segment fused to EpCAM transmembrane and intracellular regions) (human) (UniProt Q9NYJ7); assay: FACS, CHO-K1 hDLL3 cells, 20 nM antibody

MFI [MFI]	Binder
12000	B1
11800	B2

target: DLL3 endogenously expressed on NCI-H82 cells (UniProt Q9NYJ7); assay: FACS on NCI-H82 cells; antibody 0.0064 nM

MFI	Binder
135	B1
137	B2

target: human DLL3 protein expressed on CHO-K1 recombinant cells (human DLL3 extracellular segment fused to EpCAM transmembrane and intracellular regions) (human) (UniProt Q9NYJ7); assay: FACS, CHO-K1 hDLL3 cells, 0.8 nM antibody

MFI [MFI]	Binder
4390	B1
4310	B2

target: mouse DLL3 on CHO-K1-mDLL3 cells (mouse) (UniProt O88516); assay: FACS, CHO-K1-mDLL3 cells, 20 nM antibody

MFI [MFI]	Binder
1420	B1
1290	B2

target: human DLL3 protein expressed on CHO-K1 recombinant cells (human DLL3 extracellular segment fused to EpCAM transmembrane and intracellular regions) (human) (UniProt Q9NYJ7); assay: FACS, CHO-K1 hDLL3 cells, 100 nM antibody

MFI [MFI]	Binder
12400	B1
12000	B2

target: monkey DLL3 on CHO-K1-cyno DLL3 cells (cynomolgus monkey); assay: FACS, CHO-K1-cyno DLL3 cells, 20 nM antibody

MFI [MFI]	Binder
7180	B1
7040	B2
